For one molecule, Kd results are on record in publication PMC7619190 (2026).

Where no end group is shown, it is not given here. [ ]: non-standard residue; d: D form. pY = N[C@@H](Cc1ccc(OP(=O)(O)O)cc1)C(=O)O

The target of the assay is human SRC SH2 domain (Gln147-Lys252), wild type (human, UniProt P12931-1 147-252). Nature of the assay: ITC; SH2 pretreated with 1 mM TCEP. (In general: ITC needs no label: the signal is the heat of the interaction.)

B1: optimized SRC binding phosphopeptide (EPQpYEEIP) (peptide)
peptide: EPQ[pY]EEIP
Take B1: the dissociation constant Kd amounted to 293 nM.

By Kd is commonly meant the equilibrium constant for the complex coming apart.
